The text below walks through data of article PMC10377036, “Biological Recognition-Based Electrochemical Aptasensor for Point-of-Care Detection of cTnI”.

The series has as its target cardiac troponin I (cTnI) (UniProt P19429 2-210). Nature of the series: electrochemical aptasensor (CV, SWV); 50 ng/mL cTnI in CV feasibility test; electrode blocked with MCH; sensor LOD 8.46 pg/mL, linear range 10 pg/mL-100 ng/mL (not a Kd); SWV in PBS (0.01 M PB, 150 mM NaCl, pH 7.4); 10 uL cTnI incubated on electrode 10 min at room temperature. The conditions noted are these: protein: commercial; label: methylene blue; single strand.

Chain of cardiac troponin I (cTnI) (P19429 2-210): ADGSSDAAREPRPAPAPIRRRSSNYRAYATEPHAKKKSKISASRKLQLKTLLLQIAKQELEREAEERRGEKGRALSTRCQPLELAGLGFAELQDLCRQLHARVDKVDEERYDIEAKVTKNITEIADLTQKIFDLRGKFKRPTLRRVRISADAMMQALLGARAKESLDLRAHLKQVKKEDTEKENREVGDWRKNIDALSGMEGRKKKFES

Consider CGTGCAGTACGCCAACCTTTCTCATGCGCTGCCCCTCTTA (ssDNA, 5' thiol (SH); 3' methylene blue (MB)) [Apt (MB-Apt-SH)], for which the binding result is on record as “binds”.
